Assay results taken from publication PMC5768779.

Test system: USP48 (isoform 1)
Experiment: EMSA
Conditions: 50 nM NCP, estimated from first distinct shift, higher species above 4 uM, EMSA: 50 nM NCP, native gel, SPR: immobilized nucleosomes, 10 successive USP48 injections, one-phase binding fit, binding buffer, pH and temperature not in …

## NCP H2A-BRCA1ub (multi-monoubiquitinated, Widom 601, 147 bp)
Histone H2A multi-monoubiquitinated at the C-terminal BRCA1 site (K125/K127/K129), DNA unmodified
  Kd: 1000 nM

## NCP unmodified (Widom 601, 147 bp)
  Kd: 1000 nM
